{"source": "the DeepSol protein solubility set"}
{"assay": "soluble on expression in E. coli; label from the status in PepcDB or PDB records"}
{"sequence": "MSRLVIPSHSPNEEGNVVRVTPESAGWEYVGFEVYVLAKGQTLRKETKDQEACLVLLKGKANISTKLERWEQIGLRMDVSEKVPPYSVYIPSNDFYEVQAVTDLELAVCLAPGKGTYPARLIPPSEVGVEIRGAGNIERRVHNILPESQPADSLLVVEVFTPEGNWSSYPPHKHDQDNLPHESYLEETYYHKINPDHGFMVQRVYTDDRSIDETMVVKNGDVVLVPKGYHPVSAPPGYEGYYLNVMAGPVRTWKFHNDPDHEWVMESKLAAKQK", "soluble on expression in E. coli": "not soluble"}
{"sequence": "MRPAGRSNNQVRPVTLTRNYTKHAEGSVLVEFGDTKVLCTASIEEGVPRFLKGQGQGWITAEYGMLPRSTHTRNAREAAKGKQGGRTMEIQRLIARALRAAVDLKALGEFTITLDCDVLQADGGTRTASITGACVALVDALQKLVENGKLKTNPMKGMVAAVSVGIVNGEAVCDLEYVEDSAAETDMNVVMTEDGRIIEVQGTAEGEPFTHEELLILLALARGESNPL", "soluble on expression in E. coli": "soluble"}
{"sequence": "MLPFAPQDEPWDREMEVFSGGGASSGEVNGLKMVDEPMEEGEADSCHDEGVVKEIPITHHVKEGYEKADPAQFELLKVLGQGSFGKVFLVRKKTGPDAGQLYAMKVLKKASLKVRDRVRTKMERDILVEVNHPFIVKLHYAFQTEGKLYLILDFLRGGDVFTRLSKEVLFTEEDVKFYLAELALALDHLHQLGIVYRDLKPENILLDEIGHIKLTDFGLSKESVDQEKKAYSFCGTVEYMAPEVVNRRGHSQSADWWSYGVLMFEMLTGTLPFQGKDRNETMNMILKAKLGMPQFLSAEAQSLLRMLFKRNPANRLGSEGVEEIKRHLFFANIDWDKLYKREVQPPFKPASGKPDDTFCFDPEFTAKTPKDSPGLPASANAHQLFKGFSFVATSIAEEYKITPITSANVLPIVQINGNAAQFGEVYELKEDIGVGSYSVCKRCIHATTNMEFAVKIIDKSKRDPSEEIEILMRYGQHPNIITLKDVFDDGRYVYLVTDLMKGGELLDRILKQKCFSEREASDILYVISKTVDYLHCQGVVHRDLKPSNILYMDESASADSIRICDFGFAKQLRGENGLLLTPCYTANFVAPEVLMQQGYDAACDIWSLGVLFYTMLAGYTPFANGPNDTPEEILLRIGNGKFSLSGGNWDNISDGAKDLLSHMLHMDPHQRYTAEQILKHSWITHRDQLPNDQPKRNDVSHVVKGAMVATYSALTHKTFQPVLEPVAASSLAQRRSMKKRTSTGL", "soluble on expression in E. coli": "soluble"}
{"sequence": "MSLKKFYHLVVRILSKMITPQVIDKPHIVFMMTFPEDIKPIIKALNNSSYQKTVLTTPKQAPYLSELSDDVDVIEMTNRTLVKQIKALKSAQMIIIDNYYLLLGGYNKTSNQHIVQTWHASGALKNFGLTDHQVDVSDKAMVQQYRKVYQATDFYLVGCEQMSQCFKQSLGATEEQMLYFGLPRINKYYTADRATVKAELKDKYGITNKLVLYVPTYREDKADNRAIDKAYFEKCLPGYTLINKLHPSIEDSDIDDVSSIDTSTLMLMSDIIISDYSSLPIEASLLDIPTIFYVYDEGTYDQVRGLNQFYKAIPDSYKVYTEEDLIMTIQEKEHLLSPLFKDWHKYNTDKSLHQLTEYIDKMVTKEGGSHHHHHH", "soluble on expression in E. coli": "soluble"}
{"sequence": "SGNTSSERSGGEKTHRRESRSGKDGTRPKILMDSAEDGDLFQSDDAKEFLAWRQDQESDSKTPLEERPTVFRWKGPGKEIYLSGSFNNWATKIPLNKSHNNFVAIIDLPEGEHQYKFYVDGHWTLDPKEPVVTNKSGVVNNVIKVRKTDFEVFDALKTDSEKCADMSDLSSSPPGPYHQDPYSTKSEDKLRSPPILPPHLLQVLLNKDTGISCDPTLLPEPNHVMLNHLYALSIKDGVMVLSATHRYKKKYVTTLLYKPI", "soluble on expression in E. coli": "soluble"}
{"sequence": "MSLSSGRTVPTRSHGLGKEGVSTTGASQVEFGDPELTARINDAMVQVEELLHTELSSGEDFLVDIVMHLTRAGGKRFRPMFALLASEFGEKPLSENVIKAAVVVEITHLATLYHDDVMDEASMRRGVPSANARWDNSVAILAGDILLAHASGLMSQLGTDTVAHFAETFGELVTGQMRETVGPRDTDPIEHYTNVIREKTGVLIASAGYLGAMHAGAAPEHIDALKNFGAAVGMIFQIVDDIIDIFSETHESGKTPGTDLREGVFTLPVLYALREDTPVGAELRDILTGPLEDDETVNHVLELLSQSGGRQAALDEVYRYMDIANAELDRLPDSTVKEALRNLATFTVKRVGEGHHHHHH", "soluble on expression in E. coli": "soluble"}
